What was measured:
[1] = tested on: Hsp90 complexes in K562 cell extract; assay: Nano-LC-MS/MS of PU-beads pull-downs; type: binding; settings: protein identified in PU-beads pull-down of K562 cell extract, QSTAR-Elite QTof MS
Protocol: Protein cargo isolated from cell lysate with PU-beads or control-beads was subjected to proteomic analysis by nano liquid chromatography coupled to tandem mass spectrometry (nano LC-MS/MS). Initial protein identification was performed using the Mascot search engine, and was further evaluated using Scaffold Proteome Software (Tables 5a-d).
(§1) Lysates prepared as mentioned above were first pre-cleaned by incubation with control beads overnight at 4° C. […] Beads were washed with lysis buffer, proteins eluted by boiling in 2% SDS, separated on a denaturing gel and Coomassie stained according to manufacturer's procedure (Biorad). […] Analyses of the batch purified pools were done using a QSTAR-Elite hybrid quadrupole time-of-flight mass spectrometer (QTof MS) (AB/MDS Sciex), equipped with a nano spray ion source. Peptide mixtures (in 20 μL) are loaded onto a trapping guard column (0.3×5-mm PepMap C18 100 cartridge from LC Packings) using an Eksigent nano MDLC system (Eksigent Technologies, Inc) at a flow rate of 20 μL/min. […] Electrospray ionization (ESI) needle voltage was set at about 1800 V. The mass analyzer is operated in automatic, data-dependent MS/MS acquisition mode, with the threshold set to 10 counts per second of doubly or triply charged precursor ions selected for fragmentation scans. Survey scans of 0.25 sec are recorded from 400 to 1800 amu; up to 3 MS/MS scans are then collected sequentially for the selected precursor ions, recording from 100 to 1800 amu. The collision energy is automatically adjusted in accordance with the m/z value of the precursor ions selected for MS/MS. Selected precursor ions are excluded from repeated selection for 60 sec after the end of the corresponding fragmentation duty cycle. […] One missed tryptic cleavage site was allowed, precursor ion mass tolerance=0.4 Da fragment ion mass tolerance=0.4 Da, protein modifications were allowed for Met-oxide, Cys-acrylamide and N-terminal acetylation. MudPit scoring was typically applied with ‘require bold red’ activated, and using significance threshold score p<0.05. Unique peptide counts (or ‘spectral counts’) and percent sequence coverages for all identified proteins were exported to Scaffold Proteome Software (version 2_06_01, www.proteomesoftware.com) for further bioinformatic analysis (Table 5a). Using output from Mascot, Scaffold validates, organizes, and interprets mass spectrometry data, allowing more easily to manage large amounts of data, to compare samples, and to search for protein modifications.

[2] = tested on: Hsp90 complexes in Mia-PaCa-2 cell extract; assay: Nano-LC-MS/MS of PU-beads pull-downs; type: binding, human; settings: protein identified in PU-beads pull-down of Mia-PaCa-2 cell extract; QSTAR-Elite QTof MS
Protocol: as §1

| Molecule | Number of Assigned Spectra, K562 Prep 1 [1] | Number of Assigned Spectra, K562 Prep 2 [1] | Number of Assigned Spectra, Mia-Paca 2 [2] |
| --- | --- | --- | --- |
| TRIM56 (protein, UniProt Q9BRZ2 1-755, looked up) E3 ubiquitin-protein ligase …: MVSHGSSPSLLEALSSDFLACKICLEQLRAPKTLPCLHTYCQDCLAQLADGGRVRCPECRETVPVPPEGVASFKTNFFVNGLLDLVKARACGDLRAGKPACALCPLVGGTSTGGPATARCLDCADDLCQACADGHRCTRQTHTHRVVDLVGYRAGWYDEEARERQAAQCPQHPGEALRFLCQPCSQLLCRECRLDPHLDHPCLPLAEAVRARRPGLEGLLAGVDNNLVELEAARRVEKEALARLREQAARVGTQVEEAAEGVLRALLAQKQEVLGQLRAHVEAAEEAARERLAELEGREQVARAAAAFARRVLSLGREAEILSLEGAIAQRLRQLQGCPWAPGPAPCLLPQLELHPGLLDKNCHLLRLSFEEQQPQKDGGKDGAGTQGGEESQSRREDEPKTERQGGVQPQAGDGAQTPKEEKAQTTREEGAQTLEEDRAQTPHEDGGPQPHRGGRPNKKKKFKGRLKSISREPSPALGPNLDGSGLLPRPIFYCSFPTRMPGDKRSPRITGLCPFGPREILVADEQNRALKRFSLNGDYKGTVPVPEGCSPCSVAALQSAVAFSASARLYLINPNGEVQWRRALSLSQASHAVAALPSGDRVAVSVAGHVEVYNMEGSLATRFIPGGKASRGLRALVFLTTSPQGHFVGSDWQQNSVVICDGLGQVVGEYKGPGLHGCQPGSVSVDKKGYIFLTLREVNKVVILDPKGSLLGDFLTAYHGLEKPRVTTMVDGRYLVVSLSNGTIHIFRVRSPDS | 0 | 0 | 3 |
| HYOU1 (protein, UniProt Q9Y4L1 33-999, looked up) Hypoxia up-regulated protein 1: LAVMSVDLGSESMKVAIVKPGVPMEIVLNKESRRKTPVIVTLKENERFFGDSAASMAIKNPKATLRYFQHLLGKQADNPHVALYQARFPEHELTFDPQRQTVHFQISSQLQFSPEEVLGMVLNYSRSLAEDFAEQPIKDAVITVPVFFNQAERRAVLQAARMAGLKVLQLINDNTATALSYGVFRRKDINTTAQNIMFYDMGSGSTVCTIVTYQMVKTKEAGMQPQLQIRGVGFDRTLGGLEMELRLRERLAGLFNEQRKGQRAKDVRENPRAMAKLLREANRLKTVLSANADHMAQIEGLMDDVDFKAKVTRVEFEELCADLFERVPGPVQQALQSAEMSLDEIEQVILVGGATRVPRVQEVLLKAVGKEELGKNINADEAAAMGAVYQAAALSKAFKVKPFVVRDAVVYPILVEFTREVEEEPGIHSLKHNKRVLFSRMGPYPQRKVITFNRYSHDFNFHINYGDLGFLGPEDLRVFGSQNLTTVKLKGVGDSFKKYPDYESKGIKAHFNLDESGVLSLDRVESVFETLVEDSAEEESTLTKLGNTISSLFGGGTTPDAKENGTDTVQEEEESPAEGSKDEPGEQVELKEEAEAPVEDGSQPPPPEPKGDATPEGEKATEKENGDKSEAQKPSEKAEAGPEGVAPAPEGEKKQKPARKRRMVEEIGVELVVLDLPDLPEDKLAQSVQKLQDLTLRDLEKQEREKAANSLEAFIFETQDKLYQPEYQEVSTEEQREEISGKLSAASTWLEDEGVGATTVMLKEKLAELRKLCQGLFFRVEERKKWPERLSALDNLLNHSSMFLKGARLIPEMDQIFTEVEMTTLEKVINETWAWKNATLAEQAKLPATEKPVLLSKDIEAKMMALDREVQYLLNKAKFTKPRPRPKDKNGTRAEPPLNASASDQGEKVIPPAGQTEDAEPISEPEKVETGSEPGDTEPLELGGPGAEPEQKEQSTGQKRPLKNDEL | 0 | 3 | 0 |
| ZG16B (protein, UniProt Q96DA0 17-172, looked up) Pancreatic adenocarcinoma …: GKMYGPGGGKYFSTTEDYDHEITGLRVSVGLLLVKSVQVKLGDSWDVKLGALGGNTQEVTLQPGEYITKVFVAFQAFLRGMVMYTSKDRYFYFGKLDGQISSAYPSQEGQVLVGIYGQYQLLGIKSIGFEWNYPLEEPTTEPPVNLTYSANSPVGR | 0 | 3 | 0 |
| KIAA1468 (protein, UniProt Q9P260 2-1216, looked up) RAB11-binding protein RELCH: AAMAPGGSGSGGGVNPFLSDSDEDDDEVAATEERRAVLRLGAGSGLDPGSAGSLSPQDPVALGSSARPGLPGEASAAAVALGGTGETPARLSIDAIAAQLLRDQYLLTALELHTELLESGRELPRLRDYFSNPGNFERQSGTPPGMGAPGVPGAAGVGGAGGREPSTASGGGQLNRAGSISTLDSLDFARYSDDGNRETDEKVAVLEFELRKAKETIQALRANLTKAAEHEVPLQERKNYKSSPEIQEPIKPLEKRALNFLVNEFLLKNNYKLTSITFSDENDDQDFELWDDVGLNIPKPPDLLQLYRDFGNHQVTGKDLVDVASGVEEDELEALTPIISNLPPTLETPQPAENSMLVQKLEDKISLLNSEKWSLMEQIRRLKSEMDFLKNEHFAIPAVCDSVQPPLDQLPHKDSEDSGQHPDVNSSDKGKNTDIHLSISDEADSTIPKENSPNSFPRREREGMPPSSLSSKKTVHFDKPNRKLSPAFHQALLSFCRMSADSRLGYEVSRIADSEKSVMLMLGRCLPHIVPNVLLAKREELIPLILCTACLHPEPKERDQLLHILFNLIKRPDDEQRQMILTGCVAFARHVGPTRVEAELLPQCWEQINHKYPERRLLVAESCGALAPYLPKEIRSSLVLSMLQQMLMEDKADLVREAVIKSLGIIMGYIDDPDKYHQGFELLLSALGDPSERVVSATHQVFLPAYAAWTTELGNLQSHLILTLLNKIEKLLREGEHGLDEHKLHMYLSALQSLIPSLFALVLQNAPFSSKAKLHGEVPQIEVTRFPRPMSPLQDVSTIIGSREQLAVLLQLYDYQLEQEGTTGWESLLWVVNQLLPQLIEIVGKINVTSTACVHEFSRFFWRLCRTFGKIFTNTKVKPQFQEILRLSEENIDSSAGNGVLTKATVPIYATGVLTCYIQEEDRKLLVGFLEDVMTLLSLSHAPLDSLKASFVELGANPAYHELLLTVLWYGVVHTSALVRCTAARMFELTLRGMSEALVDKRVAPALVTLSSDPEFSVRIATIPAFGTIMETVIQRELLERVKMQLASFLEDPQYQDQHSLHTEIIKTFGRVGPNAEPRFRDEFVIPHLHKLALVNNLQIVDSKRLDIATHLFEAYSALSCCFISEDLMVNHFLPGLRCLRTDMEHLSPEHEVILSSMIKECEQKVENKTVQEPQGSMSIAASLVSEDTKTKFLNKMGQLTTSGAMLANVFQRKK | 0 | 0 | 3 |
| HEATR2 (protein, UniProt Q86Y56 2-855, looked up) Dynein axonemal assembly …: AALGVAEAVAAPHPAEGAETAEAVELSRALSRLLPGLEADSKPGRRRALEALRRALEEPGPAADPTAFQGPWARLLLPRLLRCLSDPAEGCRALAVHLLDLGLRRAARPRDALPRLLPALAARLAGPVPARRPPEACEELRLALVQLLGLAVDLCGAALAPHLDDALRALRCSLLDPFAAVRRESCSCAAALAQATPDHFHMQSESLIGPLMQTISHQHWKVRVAAIEATGAVIHFGNGKSVDDVLSHFAQRLFDDVPQVRRAVASVVGGWLLCLRDRYSFFHKLIPLLLSSLNDEVPEVRQLAASLWEDVGLQWQKENEEDLKDKLDFAPPTPPHYPPHERRPVLGCRELVFRNLSKILPALCHDITDWVVGTRVKSAQLLPVLLLHAEDHATQHLEVVLRTLFQACTDEEAAVVQSCTRSAELVGTFVSPEVFLKLILSTLKKTPSASGLLVLASAMRGCPREALQPHLAAIATELAQAHICQASENDLYLERLLLCVQALVSVCHEDCGVASLQLLDVLLTIVALAGATGLRDKAQETMDSLAMVEGVSSCQDLYRKHIGPLLERVTASHLDWTAHSPELLQFSVIVAQSGPALGEALPHVVPTLRACLQPSQDPQMRLKLFSILSTVLLRATDTINSQGQFPSYLETVTKDILAPNLQWHAGRTAAAIRTAAVSCLWALTSSEVLSAEQIRDVQETLMPQVLTTLEEDSKMTRLISCRIINTFLKTSGGMTDPEKLIRIYPELLKRLDDVSNDVRMAAASTLVTWLQCVKGANAKSYYQSSVQYLYRELLVHLDDPERAIQDAILEVLKEGSGLFPDLLVRETEAVIHKHRSATYCEQLLQHVQAVPATQ | 5 | 2 | 11 |

Source: patent publication US20220074941A1, “HSP90 COMBINATION THERAPY” (Sloan-Kettering Institute for Cancer Research, priority 2011, published 2022)
